From patent publication US20220098310A1 (Alexion, published 2022)
Substitutions are numbered along the chain they refer to.

T1: recombinant human ALK2 extracellular domain (Creative Biomart catalog number ACVR1-01H) (human, UniProt Q04771 21-123)
T1 construct: also called ALK2 ECD; ACVR1 ECD
T1 sequence: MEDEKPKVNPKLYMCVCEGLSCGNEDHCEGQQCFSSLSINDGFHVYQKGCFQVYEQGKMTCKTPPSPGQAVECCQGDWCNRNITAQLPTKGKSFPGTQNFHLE

T2: mouse ALK2 expressed on the cell surface of wild-type C2C12 mouse myoblast cells (mouse, UniProt P37172 21-509)
T2 construct: Endogenous ALK2 of C2C12 cells (ATCC CRL-1772); also called murine ALK2; ALK2 on C2C12 cells
T2 sequence: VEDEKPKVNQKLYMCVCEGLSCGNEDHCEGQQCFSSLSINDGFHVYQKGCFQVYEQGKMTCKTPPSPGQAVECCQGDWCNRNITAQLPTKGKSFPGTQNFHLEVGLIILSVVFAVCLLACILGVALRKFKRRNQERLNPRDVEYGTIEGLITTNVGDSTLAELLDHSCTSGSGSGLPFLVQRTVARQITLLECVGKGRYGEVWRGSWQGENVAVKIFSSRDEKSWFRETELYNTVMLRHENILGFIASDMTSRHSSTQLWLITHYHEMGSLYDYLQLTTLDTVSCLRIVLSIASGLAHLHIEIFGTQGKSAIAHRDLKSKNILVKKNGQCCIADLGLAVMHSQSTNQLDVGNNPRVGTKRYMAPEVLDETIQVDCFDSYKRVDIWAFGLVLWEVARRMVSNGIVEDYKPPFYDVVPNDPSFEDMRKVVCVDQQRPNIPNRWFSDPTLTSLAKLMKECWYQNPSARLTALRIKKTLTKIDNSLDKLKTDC

B1: JAB0481 (antibody, mouse IgG1, kappa)
heavy: EVQLQQSGAELVRPGASVRLSCTASGFNIKDSLMHWVKQRPEQGLEWIGWIDPEDGETKYAPNFQDKATITAVTSSNTAYLQLSSLTSEDSAIYYCARYTSDYYTMDYWGQGTSVTVSSAKTTPPSVYPLAPGSAAQTNSMVTLGCLVKGYFPEPVTVTWNSGSLSSGVHTFPAVLQSDLYTLSSSVTVPSSTWPSQTVTCNVAHPASSTKVDKKIVPRDCGCKPCICTVPEVSSVFIFPPKPKDVLTITLTPKVTCVVVDISKDDPEVQFSWFVDDVEVHTAQTKPREEQINSTFRSVSELPIMHQDWLNGKEFKCRVNSAAFPAPIEKTISKTKGRPKAPQVYTIPPPKEQMAKDKVSLTCMITNFFPEDITVEWQWNGQPAENYKNTQPIMDTDGSYFVYSKLNVQKSNWEAGNTFTCSVLHEGLHNHHTEKSLSHSPGK
light: DIQMTQSPASQSASLGESVTFTCLASQTIGTWLAWYQQKPGKSPQLLIYAATSLADGVPSRFSGSGSGTKFSFKISSLQAEDFASYYCQQLYSTPWTFGGGTKLEIKRADAAPTVSIFPPSSEQLTSGGASVVCFLNNFYPKDINVKWKIDGSERQNGVLNSWTDQDSKDSTYSMSSTLTLTKDEYERHNSYTCEATHKTSTSPIVKSFNRNEC
notes: Murine IgG1/kappa; also called antibody JAB0481; parent mAb JAB0481
B2: JAB0501 (antibody, mouse IgG1, kappa, V domains shown)
VH: EVQLQQSGAELVRPGASVRLSCTASGFNIKDSLMHWVKQRPEQGLEWIGWIDPEDGETKYAPNFQSKATITAVTSSNTAYLQLSSLTSEDSAIYYCARYTSPYYTMDYWGQGTSVTVSS
VL: DIQMTQSPASQSASLGESVTFTCLASQTIGTWLAWYQQKPGKSPQLLIYAATSLADGVPSRFSGSGSGTKFSFKISSLQAEDFASYYCQQVYSTPWTFGGGTKLEIKR
B3: JAB0505 (antibody, mouse IgG1, kappa, V domains shown)
VH: B2 VH with K59R, S66D, P102R, D107E
VL: B2 VL with V91L, S93W
notes: also called antibody JAB0505
B4: JAB0399 (antibody, mouse IgG1, kappa)
heavy: B1 heavy with S134F
light: B1 light
notes: Murine IgG1/kappa mAb from phage library; also called antibody JAB0399; mAb JAB0399

Key:
[1] = biological target: T1, recombinant human ALK2 extracellular …; experiment: SPR (Biacore), antibody captured, ALK2 ECD as analyte
[2] = biological target: T1, recombinant human ALK2 extracellular …; experiment: SPR (Biacore), JAB0481 captured at low density on anti-mouse IgG chip, ALK2 ECD as analyte, 1:1 Langmuir fit
Method: (§1) Anti-mouse IgG was immobilized on carboxymethylated dextran BiaCore sensor chips (CMS, GE Biosciences) using a Mouse Antibody Capture Kit (GE Lifesciences product number BR100838). Two sensors were prepared; one for a “low” density of JAB0481 captured on the sensor and one with a “high” density of JAB0481 captured on the sensor. JAB0481 was diluted to 0.05 mg/ml in HEPES EDTA surfactant buffer (HBS-EP), pH 7.4 and injected onto the mouse antibody capture sensors. The volume of JAB0481 solution injected for the “low” density condition was […], and the volume that was used for the “high” density condition was 30 μL.
(§2) The ALK2 ECD was diluted in HBS-EP buffer and injected over the JAB0481 captured sensors at concentrations ranging from 2000 nM to 250 nM followed by a 300 second association period. This was followed by the injection of HBS-EP buffer and a 500 second dissociation period. Relative response deflection was plotted against time and the data were fitted to curves according to the Langmuir 1:1 binding kinetic model.
(§3) The sensorgrams for the binding of the ALK2 ECD to JAB0481 at low surface density is provided in FIG. 9, while the sensorgrams for the binding of the ALK2 ECD to JAB0481 at high surface density is provided in FIG. 10. Table 2 provides the association and dissociation rates, the dissociation constant, and Chi squared values calculated from the Biacore binding data.

[3] = biological target: T1, recombinant human ALK2 extracellular …; experiment: SPR (Biacore), JAB0481 captured at high density on anti-mouse IgG chip, ALK2 ECD as analyte, 1:1 Langmuir fit
Method: as §1, §2, §3

[4] = biological target: T3, ALK1-Fc (R&D Systems catalog number 370-AL-100) (human, UniProt P37023 22-118); experiment: bio-layer interferometry (Octet): ALK1-Fc captured on anti-human Fc tips, antibody in solution at 10 ug/mL
T3 construct: extracellular domain; Bought; also called recombinant ALK1-Fc; paralog ALK1; not shown: Fc part (loaded on anti-human Fc tips)
T3 sequence (P37023 22-118): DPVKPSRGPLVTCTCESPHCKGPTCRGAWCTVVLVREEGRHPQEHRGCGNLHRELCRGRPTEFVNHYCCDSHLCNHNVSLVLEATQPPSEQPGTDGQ
Method: ALK2-Fc (R&D Systems), ALK2-Fc (Sino Biological catalog number 10227-H03H), and ALK1-Fc (R&D Systems catalog number 370-AL-100) were diluted to 10 μg/mL in 1× kinetics buffer (ForteBio) and loaded onto anti-human Fc tips (ForteBio). After baseline equilibration in kinetics buffer (ForteBio), the sensors were applied to solutions of antibodies JAB0399, JAB0481, and BB5.1 (isotype control mAb) diluted to 10 μg/ml in kinetics buffer. The sensors were then applied to antibody-free kinetics buffer to measure antibody dissociation.

[5] = biological target: T2, mouse ALK2 expressed on the cell …; experiment: flow cytometry on wild-type C2C12 cells, antibody 2.45 to 5,000 ng/mL and 0 ng/mL, detected with AF488 donkey anti-mouse IgG
Method: Anti-ALK2 antibodies were evaluated for binding to ALK2 expressed on the cell surface of mouse myoblast cells (C2C12; ATCC CRL-1772) by flow cytometry. The expression of ALK2 in wild-type C2C12 cells was confirmed by RT-qPCR and by observing the binding of commercially available polyclonal anti-ALK2 antibodies to the cells by flow cytometry (data not shown). […] Loss of ALK2 expression was verified by flow cytometry and genomic sequencing (data not shown).
Wild-type and ALK2 knock-out C2C12 cells were detached from culture flasks using AssayComplete™ Cell Detachment Reagent (DiscoverX) which was used to maintain intact cell membrane morphology. Cells were washed twice with PBS and then re-suspended in PBS. […] Cells were washed once in FACS buffer (5% bovine serum albumin, […] in PBS) re-suspended in blocking buffer (6% BSA in PBS) and incubated on wet ice for 15 minutes. The binding of the anti-ALK2 antibodies to cells was detected with a 1:100 dilution of Alexa Fluor488-conjugated donkey anti-mouse IgG (ThermoFisher catalog number A21202). Cells were then washed twice in FACS buffer, re-suspended in FACS buffer and the binding of anti-ALK2 antibodies determined by flow cytometry using a DxP6 flow cytometer (Cytek).

[6] = biological target: T2, mouse ALK2 expressed on the cell …; experiment: cell-based or functional assay

| Binder | Kd [1] | koff [1] | kon [1] | Kd [2] | koff [2] | kon [2] | Kd [3] | koff [3] | kon [3] | binding result [4] | binding result [5] | IC50, BRE-luciferase reporter assay in C2C12 cells stimulated with BMP9 [6] |
| --- | --- | --- | --- | --- | --- | --- | --- | --- | --- | --- | --- | --- |
| B1 | 132 nM | 0.00516 s⁻¹ | 39100 M⁻¹ s⁻¹ | 155 nM | 0.00833 s⁻¹ | 53600 M⁻¹ s⁻¹ | 72.7 nM | 0.00467 s⁻¹ | 64200 M⁻¹ s⁻¹ | no binding (tested: 10 ug/mL) | binds |  |
| B2 | 24.5 nM | 0.000929 s⁻¹ | 37900 M⁻¹ s⁻¹ |  |  |  |  |  |  |  |  | 0.204 nM |
| B3 | 20.8 nM | 0.000839 s⁻¹ | 40300 M⁻¹ s⁻¹ |  |  |  |  |  |  |  |  | 0.139 nM |
| B4 |  |  |  |  |  |  |  |  |  | no binding (tested: 10 ug/mL) |  |  |
